What was measured:
[1] = biological target: actin filaments grown from rabbit skeletal muscle actin (unlabeled ADP-F-actin) (rabbit) (UniProt P68135); assay: single-molecule TIRF microscopy
[2] = biological target: actin filaments grown from rabbit skeletal muscle actin (unlabeled ADP-F-actin) (rabbit) (UniProt P68135); assay: TIRF microscopy with microfluidics

mNeonGreen–Tpm1.8 (tropomyosin isoform Tpm1.8 fused at its N-terminus to an alanine–serine extension and to mNeonGreen) (natural protein)
Kd of an isolated Tpm1.8 molecule on the actin filament (RI/BI) [1]: 500 µM | RI, rate of release of an isolated Tpm from the actin filament (length) [1]: > 4.13e-08 m⋅s^-1 | RI, rate of release of an isolated Tpm from the actin filament (molecules) [1]: > 1.25 s⁻¹ | half-life of the complex of an isolated Tpm1.8 molecule and the actin filament [1]: < 0.6 s | BB, rate constant of binding to the domain edge at the barbed end (length) [2]: 1.19 m⋅M^-1⋅s^-1 | BBP, combined binding rate constant at both domain edges (length) [2]: 1.83 m⋅M^-1⋅s^-1 | BBP, combined binding rate constant at both domain edges (molecules) [2]: 5.6e+07 M^-1⋅s^-1 | BP, rate constant of binding to the domain edge at the pointed end (length) [2]: 0.64 m⋅M^-1⋅s^-1 | RB, rate of release from the domain edge at the barbed end (length) [2]: 1.98e-09 m⋅s^-1 | RB, rate of release from the domain edge at the barbed end (molecules) [2]: 0.061 s⁻¹ | RBP, combined release rate at both domain edges (length) [2]: 3.05e-09 m⋅s^-1 | RBP, combined release rate at both domain edges (molecules) [2]: 0.094 s⁻¹ | RP, rate of release from the domain edge at the pointed end (length) [2]: 1.07e-09 m⋅s^-1 | RP, rate of release from the domain edge at the pointed end (molecules) [2]: 0.033 s⁻¹ | critical concentration for elongation (affinity at the domain edge) [2]: 1.65 nM | half-life of a molecule bound at the domain edge at the barbed end [2]: 11 s | half-life of a molecule bound at the domain edge at the pointed end [2]: 21 s

Reference: publication PMC7851853
